# US20220281936
# Columns and labels:
# Mouse IL12 (unmodified) = molecular target: T1, Mouse IL12 (unmodified)
# T1 chain 1: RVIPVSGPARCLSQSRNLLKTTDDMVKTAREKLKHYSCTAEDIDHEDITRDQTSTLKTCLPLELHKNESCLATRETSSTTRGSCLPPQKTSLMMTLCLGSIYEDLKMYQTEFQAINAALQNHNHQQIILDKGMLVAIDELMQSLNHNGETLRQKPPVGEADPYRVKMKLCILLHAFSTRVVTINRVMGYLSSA
# T1 chain 2: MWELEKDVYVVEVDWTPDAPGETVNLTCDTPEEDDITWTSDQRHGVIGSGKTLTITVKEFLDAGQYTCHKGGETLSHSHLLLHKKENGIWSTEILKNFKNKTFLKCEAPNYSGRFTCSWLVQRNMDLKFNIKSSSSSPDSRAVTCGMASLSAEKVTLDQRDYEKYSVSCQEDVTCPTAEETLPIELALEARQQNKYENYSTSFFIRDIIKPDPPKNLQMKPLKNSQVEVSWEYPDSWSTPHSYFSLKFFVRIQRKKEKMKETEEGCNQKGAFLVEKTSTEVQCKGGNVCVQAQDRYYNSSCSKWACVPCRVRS
protein,measurement,setting,value
Recombinant mouse MMP9 (protein) FQTFKGLKWDHHNITYWIQNYSEDLPRDMIDDAFARAFAVWGEVAPLTFTRVYGPEADIVIQFGVAEHGDGYPFDGKDGLLAHAFPPGAGVQGDAHFDDDELWSLGKGVVIPTYYGNSNGAPCHFPFTFEGRSYSACTTDGRNDGTPWCSTTADYDKDGKFGFCPSERLYTEHGNGEGKPCVFPFIFEGRSYSACTTKGRSDGYRWCATTANYDQDKLYGFCPTRVDATVVGGNSAGELCVFPFVFLGKQYSSCTSDGRRDGRLWCATTSNFDTDKKWGFCPDQGYSLFLVAAHEFGHALGLDHSSVPEALMYPLYSYLEGFPLNKDDIDGIQYLYGRGSKPDPRPPATTTTEPQPTAPPTMCPTIPPTAYPTVGPTVGPTGAPSPGPTSSPSPGPTGAPSPGPTAPPTAGSSEASTESLSPADNPCNVDVFDAIAEIQGALHFFKDGWYWKFLNHRGSPLQGPFLTARTWPALPATLDSAFEDPQTKRVFFFSGRQMWVYTGKTVLGPRSLDKLGLGPEVTHVSGLLPRRLGKALLFSKGRVWRFDLKSQKVDPQSVIRVDKEFSGVPWNSHDIFQYQDKAYFCHGKFFWRVSFQNEVNKVDHEVNQVDDVGYVTYDLLQCP,"proteolytic cleavage, SDS-PAGE (30 min, 37 C)",IL12Rβ1-VP-IL12,"MMP2 and MMP9 fully cleaved the IL12Rβ1 portion, yielding IL12 heterodimer (-60 kDa)"
same,"proteolytic cleavage, SDS-PAGE",Mouse IL12 (unmodified),These enzymes had no effect on IL12 itself
